Data set [1] in a line: cycloheximide chase, anti-FLAG immunoblot, secretion rate. The following applies: glycan lost; control: wild-type AAT in WT 293T cells. On the technique in general: A western blot detects proteins with antibodies after separation by electrophoresis.
A short description of data set [2]: immunoblot of media and lysates, LMAN1 KO vs WT 293T. The following applies: glycan lost; control: wild-type AAT.
A short description of data set [3]: immunoblot of intracellular AAT in 293T lysates. The following applies: glycan lost; control: wild-type AAT.

Take α1-antitrypsin (AAT): N70Q: the expression_or_secretion entry in data set [1] is “no change”. Further, the “other: LMAN1-dependence of secretion” value in data set [2] is reported as “no change”.
For α1-antitrypsin (AAT): N107Q, the localisation_or_trafficking entry in data set [3] is “increases”. For the same substance, the expression_or_secretion result in data set [1] is given as “decreases”. Besides, the “other: LMAN1-dependence of secretion” value in data set [2] is “abolishes”.
For α1-antitrypsin (AAT): N271Q, the expression_or_secretion entry in data set [1] was “no change”. Moreover, the “other: LMAN1-dependence of secretion” value in data set [2] is reported as “no change”.
